B1: … (peptide)
peptide: Ac-ADAEEDDSDVWWGGADTDYAD-NH2
B2: … (peptide)
peptide: Ac-EEDDSDVWWG-NH2
B3: … (peptide)
peptide: Ac-EEDDSDVWWGGADTDY-NH2
B4: … (peptide)
peptide: Ac-EEDDSDVWWGGA-NH2
B5: … (peptide)
peptide: Ac-PTTETEFIAWGPTGDED-NH2
B6: … (peptide)
peptide: Ac-EEDDSDVWWGG-NH2
B7: … (peptide)
peptide: Ac-EEDDSDVWWGGADTDYADGG-NH2
B8: … (peptide)
peptide: Ac-EEDDSDVWWGGADTDYADGGED-NH2
B9: … (peptide)
peptide: Ac-SADAEEDDSDVWWGGADTDYAD-NH2
B10: … (peptide)
peptide: Ac-EEDDSDVWW-NH2
B11: … (peptide)
peptide: Ac-DDSDVWWGGADTDYAD-NH2
B12: … (peptide)
peptide: Ac-DSADAEEDDSDVWWGGADTDYAD-NH2
B13: … (peptide)
peptide: Ac-DSDVWWGGADTDYAD-NH2
B14: … (peptide)
peptide: Ac-EEDDSDVWWGGADTD-NH2
B15: … (peptide)
peptide: Ac-SDVWWGGADTDYAD-NH2
B16: … (peptide)
peptide: Ac-EEDDSDVWWGGADTDYA-NH2
B17: … (peptide)
peptide: Ac-EEDDSDVWWGGAD-NH2
B18: … (peptide)
peptide: Ac-EDDSDVWWGGADTDYAD-NH2
B19: … (peptide)
peptide: Ac-EEDDSDVWWGGADTDYADG-NH2
B20: … (peptide)
peptide: Ac-VWWGGADTDYAD-NH2
B21: … (peptide)
peptide: Ac-EEDDSDVWWGGADT-NH2
B22: … (peptide)
peptide: Ac-DVWWGGADTDYAD-NH2
B23: … (peptide)
peptide: Ac-EEDDSDVWWGGADTDYADGGE-NH2
B24: … (peptide)
peptide: Ac-DAEEDDSDVWWGGADTDYAD-NH2
B25: … (peptide)
peptide: Ac-EEDDSDVWWGGADTDYADGGEDK-NH2

For orientation: Ki means a measure of affinity in units of concentration, obtained from inhibition or displacement.

This assay deals with Sushi domains (SD1/2) protein of the GABAB1a (GB1a) subunit, recombinant. In words: FP competition.
Sushi domains (SD1/2) protein of the GABAB1a (GB1a) subunit, recombinant, sequence (Q9Z0U4 29-158): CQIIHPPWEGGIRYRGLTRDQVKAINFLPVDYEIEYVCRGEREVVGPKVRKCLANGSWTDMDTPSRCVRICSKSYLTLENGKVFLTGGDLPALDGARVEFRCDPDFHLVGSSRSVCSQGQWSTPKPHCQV
For the molecule B1, the inhibition constant Ki is 500 nM.
Take B2: the inhibition constant (Ki) was determined as 12800 nM.
B3: the Ki was found to be 301 nM.
As for B4, the figure is 1020 nM.
As for B5, the figure is 30 nM.
As for B6, the figure is 1750 nM; as for B7, 341 nM; as for B8, 356 nM.
With B9, the inhibitory constant (Ki) came to 284 nM.
For the molecule B10, the inhibition constant Ki amounted to 1790 nM.
As for B11, the figure is 517 nM.
B12: the inhibition constant (Ki) amounted to 513 nM.
With B13 the figure was 1500 nM.
With B14 the figure was 341 nM.
Consider B15, for which the inhibitory constant (Ki) turned out to be 2950 nM.
Take B16: the inhibitory constant (Ki) was determined as 299 nM.
B17: the Ki was found to be 534 nM.
As for B18, the figure is 281 nM; as for B19, 343 nM.
As for B20, the inhibition constant (Ki) turned out to be 60800 nM.
For B21, the inhibition constant Ki turned out to be 585 nM.
With B22 the figure was 6100 nM; with B23, 351 nM.
For B24, the inhibition constant Ki is 247 nM.
As for B25, the figure is 392 nM.
